US20210363269A1 (ALX ONCOLOGY, published 2021)
Changes are numbered by the printed parent chain. In names and notes the source's numbering stands.

Legend:
[1] = molecular target: T1, cynomolgus SIRP-α D1 domain (SEQ ID NO:11) (cynomolgus, UniProt Q5TFQ8 30-148 (human entry), limits assumed); assay: SPR, antibody immobilised on GLC chip
T1 construct: also called cyno1
T1 chain: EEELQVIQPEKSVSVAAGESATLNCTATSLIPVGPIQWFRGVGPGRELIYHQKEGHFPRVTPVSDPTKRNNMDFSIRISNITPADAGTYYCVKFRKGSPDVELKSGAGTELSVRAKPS
Procedure: (§1) All experiments were performed at 25° C. using a SPR-based ProteOn XPR36 biosensor (BioRad, Inc, Hercules, Calif.) equipped with GLC or NLC sensor chips. […] Purification was carried out by standard Protein A affinity column chromatography and eluted antibodies were stored in PBS buffer.
(§2) For the method using GLC chip, the analytes were injected and flowed over anti-SIRPα antibodies immobilized (˜1000 RUs) on GLC chips using Proteon™ Amine Coupling Kit. For the immobilization step, GLC chip was activated with EDAC/Sulpho-NHS 1:1 (Biorad) diluted 1/100 for 300 s at 25 μL/min. Anti-SIRPα antibodies were diluted to 80 nM concentration in 10 mM sodium acetate buffer pH 4.5 and immobilized to the chip at 30 μL/min for 50 s. Chip was inactivated with ethanolamine for 300 s at 25 μL/min. The analytes (e.g., SIRP-α from different species, SIRP-β, SIRP-γ) were injected in a “one-shot” kinetic mode at nominal concentrations of 100, 33, 11, 3.7, 1.2 and 0 nM. Association times were monitored for 90 s at 100 μL/min, and dissociation times were monitored for 1200 s. The surfaces were regenerated with a 2:1 v/v blend of Pierce IgG elution buffer/4M NaCl.

[2] = molecular target: T2, human SIRP-α v2 D1 domain (human); assay: SPR, antibody immobilised on GLC chip
T2 construct: also called human v2; human α v2
Procedure: as §1, §2

[3] = molecular target: T3, human SIRP-α v1 D1 domain (human, UniProt P78324 31-149); assay: SPR, antibody immobilised on GLC chip
T3 construct: also called human v1; human α v1
Procedure: as §1, §2

NOD mouse SIRP-α = molecular target: T4, NOD mouse SIRP-α (mouse (NOD strain)); assay: SPR, antibody on GLC chip
T4 chain: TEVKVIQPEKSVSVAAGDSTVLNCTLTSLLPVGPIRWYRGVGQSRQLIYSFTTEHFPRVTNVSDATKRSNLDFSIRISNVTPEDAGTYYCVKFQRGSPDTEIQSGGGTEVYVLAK
Method in brief: (§3)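 Antibodies purified with Protein A were amine-coupled (~1000 RU) to a ProteOn XPR36 GLC chip, and SIRP analytes were injected one-shot at 100, 33, 11, 3.7, 1.2 and 0 nM in PBS pH 7.4 with 0.01% Tween-20 at 25° C. Each run used 90 s association at 100 μL/min followed by 1200 s dissociation. KD was derived as kd/ka from a global Langmuir fit to double-referenced sensorgrams.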

human SIRP-α v2 [4] = molecular target: T5, human SIRP-α v2 (human); assay: SPR, antibody on GLC chip
T5 construct: also called Human v2; Human V2
Method in brief: as §3

cynomolgus SIRP-α = molecular target: T6, cynomolgus SIRP-α (cynomolgus monkey, UniProt Q5TFQ8 30-148 (human entry), limits assumed); assay: SPR, antibody on GLC chip
T6 construct: also called cyno1
T6 chain: T1 chain
Method in brief: as §3

human SIRPβ isoform 1 = molecular target: T7, human SIRPβ isoform 1 (human, UniProt O00241 30-148); assay: SPR, antibody on GLC chip
T7 construct: also called Beta; Human SIRPb
Method in brief: as §3

human SIRP-α v1 [5] = molecular target: T8, human SIRP-α v1 (human, UniProt P78324 31-149); assay: SPR, antibody on GLC chip
T8 construct: also called Human v1; Human V1
Method in brief: as §3

BL6 mouse SIRP-α = molecular target: T9, BL6 mouse SIRP-α (mouse (C57BL/6 strain), UniProt P97797 32-148); assay: SPR, antibody on GLC chip
T9 construct: also called C57BL/6
T9 sequence: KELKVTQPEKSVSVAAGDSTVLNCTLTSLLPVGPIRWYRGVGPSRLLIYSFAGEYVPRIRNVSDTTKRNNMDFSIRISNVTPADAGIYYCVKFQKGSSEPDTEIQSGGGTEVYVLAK
Method in brief: as §3

human SIRPγ isoform 1 = molecular target: T10, human SIRPγ isoform 1 (human, UniProt Q9P1W8 29-147); assay: SPR, antibody on GLC chip
T10 construct: also called Gamma; Human SIRPg
Method in brief: as §3

BALBc mouse SIRP-α = molecular target: T11, BALBc mouse SIRP-α (mouse (BALB/c strain)); assay: SPR, antibody on GLC chip
T11 chain: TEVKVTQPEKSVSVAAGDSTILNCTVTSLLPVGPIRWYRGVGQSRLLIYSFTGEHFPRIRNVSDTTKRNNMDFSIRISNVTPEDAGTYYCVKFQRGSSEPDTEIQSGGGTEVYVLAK
Method in brief: as §3

human SIRP-α v2 [6] = molecular target: T5, human SIRP-α v2; assay: SPR
Method in brief: (§4)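 KD values were derived as kd/ka from apparent rate constants obtained by globally fitting double-referenced data to a simple Langmuir model. The data came from a ProteOn XPR36 biosensor run at 25° C in PBS pH 7.4 with 0.01% Tween-20. There, purified antibodies sat on a GLC chip by amine coupling or on an NLC chip by biotinylated Protein A capture, and SIRP analytes were injected in one-shot kinetic mode at nominal concentrations set from A280 absorbance.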

human SIRP-α v1 [7] = molecular target: T8, human SIRP-α v1; assay: SPR
Method in brief: as §4

mouse 129 SIRP-α = molecular target: T12, mouse 129 SIRP-α (mouse (129 strain), UniProt P97797 32-150); assay: SPR Koff +/-
T12 construct: also called m129
T12 chain: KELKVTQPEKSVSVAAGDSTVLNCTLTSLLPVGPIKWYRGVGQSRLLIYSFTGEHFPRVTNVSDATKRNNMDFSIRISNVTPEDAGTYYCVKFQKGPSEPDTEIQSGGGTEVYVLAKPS
Method in brief: as §4

T7 sequence (O00241 30-148 limits assumed): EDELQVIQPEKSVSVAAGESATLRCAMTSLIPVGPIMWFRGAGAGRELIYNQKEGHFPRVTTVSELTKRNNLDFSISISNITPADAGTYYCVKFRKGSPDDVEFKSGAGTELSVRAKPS
T2 sequence (chain, as listed by the source limits assumed): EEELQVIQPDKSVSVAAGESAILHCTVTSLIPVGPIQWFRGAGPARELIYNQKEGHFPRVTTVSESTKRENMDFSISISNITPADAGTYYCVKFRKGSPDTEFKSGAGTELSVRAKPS
T5 sequence (chain, as listed by the source limits assumed): as above
T8 sequence (P78324 31-149 limits assumed): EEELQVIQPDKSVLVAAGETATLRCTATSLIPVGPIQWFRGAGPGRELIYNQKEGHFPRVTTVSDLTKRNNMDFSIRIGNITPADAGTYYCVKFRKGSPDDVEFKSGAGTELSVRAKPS
T3 sequence (P78324 31-149 limits assumed): as above
T10 sequence (Q9P1W8 29-147 limits assumed): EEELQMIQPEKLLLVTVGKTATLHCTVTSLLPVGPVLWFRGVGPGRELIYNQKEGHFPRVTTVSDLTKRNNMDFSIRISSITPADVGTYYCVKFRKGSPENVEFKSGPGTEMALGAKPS

B1: antibody 119 variant mut/wt (VL mut all / VH wt) (antibody, human IgG1, V domains shown)
VH: DVQLLESGGGVVQPGGSLRLSCAASGFSFSNFAMTWVRQAPGEGLEWVSTIGSGDTYYADSVKGRFTISRDNSKNTLYLQMNSLRAEDTAVYYCAKDSTVSWSGDFFDYWGLGTLVTVSS
VL: EIVLTQSPATLSVSPGERATLSCRASQNVKNDLAWYQQKPGQAPRLLIYAARIRETGIPARFSGSGSGTEFTLTISSLQSEDFAVYYCQQYYDWPPFTFGGGTKVEIK
notes: Human IgG1 with L234A/L235A/G237A/N297A; Labels are in the order VL/VH
- Kd [1]: 138 pM
- Kd [2]: 86.4 pM
- Kd [3]: 214 pM

B2: antibody 135 variant wt/mut V34M (antibody, human IgG1, V domains shown)
VH: B1 VH with D1E, L5V, N31I, F32Y, T35S, E43K, S53A, G54D, S101G, L112Q
VL: EIVLTQSPATLSVSPGERVTFSCRASQNVRSDIAWYQQKPGQAPRLLIYAASSRDTGIPDRFSGSGSGTDFTLTISSLQSEDFGVYYCQQYYDWPPFTFGGGTKVEIK
notes: as for B1
- Kd [1]: 79.4 pM
- Kd [2]: 16.1 pM
- Kd [3]: 150 pM

B3: antibody 119 variant, light chain Mut / heavy chain Mut (antibody, V domains shown)
VH: B1 VH with D1E, M34V, E43K, L112Q
VL: B1 VL
- binding result (NOD mouse SIRP-α): no binding
- Kd (human SIRP-α v2 [4]): 87.5 pM
- Kd (cynomolgus SIRP-α): 195 pM
- Kd (human SIRPβ isoform 1): 460 pM
- Kd (human SIRP-α v1 [5]): 317 pM
- binding result (BL6 mouse SIRP-α): no binding
- Kd (human SIRPγ isoform 1): 336 pM
- binding result (BALBc mouse SIRP-α): no binding

B4: antibody 119 variant Mut/mut_V34M (antibody, human IgG1, V domains shown)
VH: B1 VH with D1E, E43K, L112Q
VL: B1 VL
notes: as for B1
- Kd [1]: 118 pM
- Kd [2]: 68.8 pM
- Kd [3]: 215 pM

B5: antibody 119 (antibody, V domains shown)
VH: B1 VH
VL: B1 VL with L21F, K39R, A60E, S76T
notes: also called AB119; S119
- Kd (human SIRP-α v2 [4]): 68.2 pM
- Kd (cynomolgus SIRP-α): 112 pM
- Kd (human SIRPβ isoform 1): 342 pM
- Kd (human SIRP-α v1 [5]): 183 pM
- binding result (BL6 mouse SIRP-α): no binding
- Kd (human SIRPγ isoform 1): 267 pM
- binding result (BALBc mouse SIRP-α): no binding
- Kd (human SIRP-α v2 [6]): 79.9 pM
- Kd (human SIRP-α v1 [7]): 183 pM
- binding result (mouse 129 SIRP-α): no binding

B6: antibody 119 variant, light chain Mut / heavy chain Mut_V34M (antibody, V domains shown)
VH: B1 VH with D1E, E43K, L112Q
VL: B1 VL
- binding result (NOD mouse SIRP-α): no binding
- Kd (human SIRP-α v2 [4]): 68.8 pM
- Kd (cynomolgus SIRP-α): 118 pM
- Kd (human SIRPβ isoform 1): 337 pM
- Kd (human SIRP-α v1 [5]): 215 pM
- binding result (BL6 mouse SIRP-α): no binding
- Kd (human SIRPγ isoform 1): 263 pM
- binding result (BALBc mouse SIRP-α): no binding

B7: AB119 Wt/wt with hIgG4 (antibody, V domains shown)
VH: B1 VH
VL: B1 VL with L21F, K39R, A60E, S76T
notes: Human IgG4 Fc region with S228P (EU numbering); only variable domains tied to the clone
- Kd [1]: 116 pM
- Kd [2]: 59.8 pM
- Kd [3]: 174 pM

B8: antibody 119 variant wt/mut (VL wt / VH mut) (antibody, human IgG1, V domains shown)
VH: B1 VH with D1E, M34V, E43K, L112Q
VL: B1 VL with L21F, K39R, A60E, S76T
notes: as for B1
- Kd [1]: 155 pM
- Kd [2]: 69.4 pM
- Kd [3]: 254 pM

B9: antibody 136 variant, light chain wt / heavy chain Mut (antibody, V domains shown)
VH: EVQLVESGGGVVQPGRSLRLSCAASGFTFSSYDVNWVRQAPGKGLEWVSLISGSGEIIYYADSVKGRFTISRDNSKNTLYLQMNSLRAEDTAVYYCAKENNRYRFFDDWGQGTLVTVSS
VL: ETVLTQSPGTLTLSPGERATLTCRASQSVYTYLAWYQEKPGQAPRLLIYGASSRATGIPDRFSGSGSGTEFTLTISSLQSEDFAVYYCQQYYDRPPLTFGGGTKVEIK
- Kd (NOD mouse SIRP-α): 678 pM
- Kd (human SIRP-α v2 [4]): 1740 pM
- Kd (human SIRPβ isoform 1): 3540 pM
- Kd (human SIRP-α v1 [5]): 558 pM
- Kd (BL6 mouse SIRP-α): 23100 pM
- Kd (human SIRPγ isoform 1): 16500 pM
- Kd (BALBc mouse SIRP-α): 416 pM

B10: antibody 136 variant, light chain Mut_I2T / heavy chain Mut (antibody, V domains shown)
VH: B9 VH
VL: B9 VL with T12S, T22S, E38Q
- Kd (NOD mouse SIRP-α): 680 pM
- Kd (human SIRP-α v2 [4]): 1860 pM
- Kd (human SIRPβ isoform 1): 3160 pM
- Kd (human SIRP-α v1 [5]): 717 pM
- Kd (BL6 mouse SIRP-α): 15300 pM
- Kd (human SIRPγ isoform 1): 40000 pM
- Kd (BALBc mouse SIRP-α): 422 pM
